Data as given in patent US20170015742A1 (published 2017).
Numbering of substitutions follows the chain as printed. Each block holds one binder with its values, some of them ahead of it.

Key:
[1] = target: recombinant human VEGF165 (human, UniProt P15692 207-395); assay: cell-based or functional assay
[2] = target: recombinant human PDGF-BB (human, UniProt P01127 82-190); assay: cell-based or functional assay
Chain of recombinant human PDGF-BB (P01127 82-190 limits assumed): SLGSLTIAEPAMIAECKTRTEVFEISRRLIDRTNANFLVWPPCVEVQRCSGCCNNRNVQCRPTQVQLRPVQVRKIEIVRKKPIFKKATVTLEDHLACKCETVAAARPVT

Chain of recombinant human VEGF165 (P15692 other isoform, or with tags, fused parts or gaps limits assumed): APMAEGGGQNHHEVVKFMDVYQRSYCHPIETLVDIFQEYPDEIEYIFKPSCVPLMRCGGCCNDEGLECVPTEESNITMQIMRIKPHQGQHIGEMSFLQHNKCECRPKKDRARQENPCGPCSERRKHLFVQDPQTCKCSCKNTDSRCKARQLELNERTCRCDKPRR

Potency IC50 (nM), HMVEC-d hVEGF165 (proliferation) [1]: 1.78 nM | Potency IC50 (nM), NIH-3T3 hPDGF-BB (proliferation) [2]: 0.187 nM
B1: 3E2.1_GS_1B10.1 (PR-1612502) (bispecific antibody, human IgG1, kappa, L234A L235A)
heavy: EVQLVQSGAEVKKPGSSVKVSCKASGYTFTESYMYWVKQAPGQGLELIGRIDPEDGSTDYVEKFKNKATLTADKSTSTAYMELSSLRSEDTAVYFCARFGARSYFYPMDAWGQGTTVTVSSGGGGSGGGGSEVQLVESGGGLVQPGGSLRLSCAASGFSFSKYDMAWFRQAPGKGLEWVASITTSGVGTYYRDSVKGRFTVSRDNAKSTLYLQMNSLRAEDTAVYYCARGYGAMDAWGQGTTVTVSSASTKGPSVFPLAPSSKSTSGGTAALGCLVKDYFPEPVTVSWNSGALTSGVHTFPAVLQSSGLYSLSSVVTVPSSSLGTQTYICNVNHKPSNTKVDKKVEPKSCDKTHTCPPCPAPEAAGGPSVFLFPPKPKDTLMISRTPEVTCVVVDVSHEDPEVKFNWYVDGVEVHNAKTKPREEQYNSTYRVVSVLTVLHQDWLNGKEYKCKVSNKALPAPIEKTISKAKGQPREPQVYTLPPSREEMTKNQVSLTCLVKGFYPSDIAVEWESNGQPENNYKTTPPVLDSDGSFFLYSKLTVDKSRWQQGNVFSCSVMHEALHNAYTQKSLSLSPGK
light: ETVLTQSPATLSLSPGERATLSCRASESVSTLMHWYQQKPGQQPRLLIYGASNLESGVPARFSGSGSGTDFTLTISSLEPEDFAVYFCQQSWNDPWTFGGGTKVEIKGGSGGGGSGGDIQMTQSPSSLSASVGDRVTITCKASQDIDDYLSWYQQKPGKSPKLVIYAATRLADGVPSRFSGSGSGTDYTLTISSLQPEDFATYYCLQSSSTPWTFGGGTKVEIKRTVAAPSVFIFPPSDEQLKSGTASVVCLLNNFYPREAKVQWKVDNALQSGNSQESVTEQDSKDSTYSLSSTLTLSKADYEKHKVYACEVTHQGLSSPVTKSFNRGEC

Potency IC50 (nM), HMVEC-d hVEGF165 (proliferation) [1]: 0.354 nM | Potency IC50 (nM), NIH-3T3 hPDGF-BB (proliferation) [2]: 0.108 nM
B2: 9E8.4_GS_4G8.5 (PR-1613188) (bispecific antibody, human IgG1, kappa, L234A L235A)
heavy: EVTLRESGPALVKPTQTLTLTCTFSGFSLSTYGMGVGWIRQPPGKALEWLANIWWDDDKYYNPSLKNRLTISKDTSKNQVVLTMTNMDPVDTATYYCARIESIGTTYSFDYWGQGTMVTVSSGGGGSGGGGSEIQLVQSGSELKKPGASVKVSCKASGYTFTNYGMYWVRQAPGQGLEYMGWINTETGKPTYADDFKGRFVFSLDTSVSTAYLQISSLKAEDTAVYFCARTNYYYRSYIFYFDYWGQGTMVTVSSASTKGPSVFPLAPSSKSTSGGTAALGCLVKDYFPEPVTVSWNSGALTSGVHTFPAVLQSSGLYSLSSVVTVPSSSLGTQTYICNVNHKPSNTKVDKKVEPKSCDKTHTCPPCPAPEAAGGPSVFLFPPKPKDTLMISRTPEVTCVVVDVSHEDPEVKFNWYVDGVEVHNAKTKPREEQYNSTYRVVSVLTVLHQDWLNGKEYKCKVSNKALPAPIEKTISKAKGQPREPQVYTLPPSREEMTKNQVSLTCLVKGFYPSDIAVEWESNGQPENNYKTTPPVLDSDGSFFLYSKLTVDKSRWQQGNVFSCSVMHEALHNAYTQKSLSLSPGK
light: EFVLTQSPGTLSLSPGERATLSCERSSGDIGDSYVSWYQQKPGQAPRLVIYADDQRPSGIPDRFSGSGSGTDFTLTISRLEPEDFAVYYCQSYDINIDIVFGGGTKVEIKGGSGGGGSGGATQLTQSPSLSASVGDRVTITCRASESVSTHMHWYQQKPGKQPKLLIYGASNLESGVPSRFSGSGSGTDFTLTISSLQPEDFATYFCQQSWNDPFTFGQGTKLEIKRTVAAPSVFIFPPSDEQLKSGTASVVCLLNNFYPREAKVQWKVDNALQSGNSQESVTEQDSKDSTYSLSSTLTLSKADYEKHKVYACEVTHQGLSSPVTKSFNRGEC

Potency IC50 (nM), HMVEC-d hVEGF165 (proliferation) [1]: 0.05 nM | Potency IC50 (nM), NIH-3T3 hPDGF-BB (proliferation) [2]: 0.043 nM
B3: CL-33675_GS_CL-34565 (PR-1613186) (bispecific antibody, human IgG1, kappa, L234A L235A)
heavy: EVTLRESGPALVKPTQTLTLTCTFSGFSLSTYGMGVGWIRQPPGKALEWLANIWWDDDKYYNPSLKNRLTISKDTSKNQVVLTMTNMDPVDTATYYCARIESSGPKYSFDYWGQGTMVTVSSGGGGSGGGGSEVQLVQSGSELKKPGASVKVSCKASGYTFTDYGMYWVRQAPGQGLEWMGWIDTETGDPTYADDFKGRFVFSLDTSVSTAYLQISSLKAEDTAVYYCARTNYYYRNYMFYFDYWGQGTMVTVSSASTKGPSVFPLAPSSKSTSGGTAALGCLVKDYFPEPVTVSWNSGALTSGVHTFPAVLQSSGLYSLSSVVTVPSSSLGTQTYICNVNHKPSNTKVDKKVEPKSCDKTHTCPPCPAPEAAGGPSVFLFPPKPKDTLMISRTPEVTCVVVDVSHEDPEVKFNWYVDGVEVHNAKTKPREEQYNSTYRVVSVLTVLHQDWLNGKEYKCKVSNKALPAPIEKTISKAKGQPREPQVYTLPPSREEMTKNQVSLTCLVKGFYPSDIAVEWESNGQPENNYKTTPPVLDSDGSFFLYSKLTVDKSRWQQGNVFSCSVMHEALHNAYTQKSLSLSPGK
light: EIVLTQSPGTLSLSPGERATLSCRASSGSIWYSFVSWYQQKPGQAPRLLIYADDQRASGIPDRFSGSGSGTDFTLTISRLEPEDFAVYYCQSYGINIDVVFGGGTKVEIKGGSGGGGSGGEIVLTQSPATLSLSPGERATLFCRASQSVSNHMHWYQQKPGQAPRLLIYGASILESGVPARFSGSGSGTDFTLTISSLEPEDFAVYYCQQSWYDPITFGQGTKLEIKRTVAAPSVFIFPPSDEQLKSGTASVVCLLNNFYPREAKVQWKVDNALQSGNSQESVTEQDSKDSTYSLSSTLTLSKADYEKHKVYACEVTHQGLSSPVTKSFNRGEC

Potency IC50 (nM), HMVEC-d hVEGF165 (proliferation) [1]: 0.058 nM | Potency IC50 (nM), NIH-3T3 hPDGF-BB (proliferation) [2]: 0.134 nM
B4: 9E8.4_GS_CL-34565 (PR-1613187) (bispecific antibody, human IgG1, kappa, L234A L235A)
heavy: B3 heavy with S103I, P105T, K106T
light: EFVLTQSPGTLSLSPGERATLSCERSSGDIGDSYVSWYQQKPGQAPRLVIYADDQRPSGIPDRFSGSGSGTDFTLTISRLEPEDFAVYYCQSYDINIDIVFGGGTKVEIKGGSGGGGSGGEIVLTQSPATLSLSPGERATLFCRASQSVSNHMHWYQQKPGQAPRLLIYGASILESGVPARFSGSGSGTDFTLTISSLEPEDFAVYYCQQSWYDPITFGQGTKLEIKRTVAAPSVFIFPPSDEQLKSGTASVVCLLNNFYPREAKVQWKVDNALQSGNSQESVTEQDSKDSTYSLSSTLTLSKADYEKHKVYACEVTHQGLSSPVTKSFNRGEC
